In US20250339569A1 (3B PHARMACEUTICALS, published 2025):
Starred links: 1 amine or outer side, 2 acyl side, 3 side chain; linkers in the order of their positions; H or OH if unused. Positions of bridges follow the written chain, without caps; N, C: chain ends. Non-standard residues stand in square brackets, D forms with d. Groups on a side chain read outwards from the residue. Primed or numbered codes have the meaning given here. ξ: configuration not given here. *: point of attachment. DOTA = O=C(O)CN1CCN(CC(=O)O)CCN(CC(=O)*)CCN(CC(=O)O)CC1; Trp(5-Cl) = N[C@@H](Cc1c[nH]c2ccc(Cl)cc12)C(=O)O; ξTrp(5-Me) = Cc1ccc2[nH]cc(CC(N)C(=O)O)c2c1; Ttds(3) = NCCCOCCOCCOCCCNC(=O)CCC(=O)*; 1Nal = N[C@@H](Cc1cccc2ccccc12)C(=O)O; mXylylene = c1cc(C[*:1])cc(C[*:2])c1; Bta = N[C@@H](Cc1csc2ccccc12)C(=O)O; Hydrocinnamoyl = O=C(CCc1ccccc1)*; tBuAla = CC(C)(C)C[C@H](N)C(=O)O; Isovaleryl = CC(C)CC(=O)*; APAc = not defined here; Apr = not defined here; Bz′ = not defined here; Hexanoyl = CCCCCC(=O)*; PhAc = O=C(Cc1ccccc1)*; Sar = CNCC(=O)O

B1: 3BP-3890 (peptide)
peptide: Ac-VYCE[dP]KWLEWSC-NH2
modifications: linker 3-12 via mXylylene; lactam 6-9
SMILES: CC(=O)N[C@H](C(=O)N[C@@H](Cc1ccc(O)cc1)C(=O)N[C@H]1CSCc2cccc(c2)CSC[C@@H](C(N)=O)NC(=O)[C@H](CO)NC(=O)[C@H](Cc2c[nH]c3ccccc23)NC(=O)[C@@H]2CCC(=O)NCCCC[C@H](NC(=O)[C@H]3CCCN3C(=O)[C@H](CCC(=O)O)NC1=O)C(=O)N[C@@H](Cc1c[nH]c3ccccc13)C(=O)N[C@@H](CC(C)C)C(=O)N2)C(C)C
B2: 3BP-3957 (peptide)
peptide: Ac-VYCE[dP]KWL[dE]WSC-NH2
modifications: linker 3-12 via mXylylene; lactam 6-9
SMILES: CC(=O)N[C@H](C(=O)N[C@@H](Cc1ccc(O)cc1)C(=O)N[C@H]1CSCc2cccc(c2)CSC[C@@H](C(N)=O)NC(=O)[C@H](CO)NC(=O)[C@H](Cc2c[nH]c3ccccc23)NC(=O)[C@H]2CCC(=O)NCCCC[C@H](NC(=O)[C@H]3CCCN3C(=O)[C@H](CCC(=O)O)NC1=O)C(=O)N[C@@H](Cc1c[nH]c3ccccc13)C(=O)N[C@@H](CC(C)C)C(=O)N2)C(C)C
B3: 3BP-3065 (peptide)
peptide: Ac-VYCEGDW[tBuAla]TWQC-NH2
modifications: linker 3-12 via mXylylene
SMILES: CC(=O)N[C@H](C(=O)N[C@@H](Cc1ccc(O)cc1)C(=O)N[C@H]1CSCc2cccc(c2)CSC[C@@H](C(N)=O)NC(=O)[C@H](CCC(N)=O)NC(=O)[C@H](Cc2c[nH]c3ccccc23)NC(=O)[C@H]([C@@H](C)O)NC(=O)[C@H](CC(C)(C)C)NC(=O)[C@H](Cc2c[nH]c3ccccc23)NC(=O)[C@H](CC(=O)O)NC(=O)CNC(=O)[C@H](CCC(=O)O)NC1=O)C(C)C
notes: also called Ac-Val-Tyr-[Cys(3MeBn)-Glu-Gly-Asp-Trp-Npg-Thr-Trp-Gln-Cys]-NH2
B4: 3BP-3107 (peptide)
peptide: Hexanoyl-VYCEGDWLTWQC-NH2
modifications: linker 3-12 via mXylylene
SMILES: CCCCCC(=O)N[C@H](C(=O)N[C@@H](Cc1ccc(O)cc1)C(=O)N[C@H]1CSCc2cccc(c2)CSC[C@@H](C(N)=O)NC(=O)[C@H](CCC(N)=O)NC(=O)[C@H](Cc2c[nH]c3ccccc23)NC(=O)[C@H]([C@@H](C)O)NC(=O)[C@H](CC(C)C)NC(=O)[C@H](Cc2c[nH]c3ccccc23)NC(=O)[C@H](CC(=O)O)NC(=O)CNC(=O)[C@H](CCC(=O)O)NC1=O)C(C)C
B5: 3BP-3109 (peptide)
peptide: PhAc-VYCEGDWLTWQC-NH2
modifications: linker 3-12 via mXylylene
SMILES: CC(C)C[C@@H]1NC(=O)[C@H](Cc2c[nH]c3ccccc23)NC(=O)[C@H](CC(=O)O)NC(=O)CNC(=O)[C@H](CCC(=O)O)NC(=O)[C@@H](NC(=O)[C@H](Cc2ccc(O)cc2)NC(=O)[C@@H](NC(=O)Cc2ccccc2)C(C)C)CSCc2cccc(c2)CSC[C@@H](C(N)=O)NC(=O)[C@H](CCC(N)=O)NC(=O)[C@H](Cc2c[nH]c3ccccc23)NC(=O)[C@H]([C@@H](C)O)NC1=O
B6: 3BP-3110 (peptide)
peptide: Hydrocinnamoyl-VYCEGDWLTWQC-NH2
modifications: linker 3-12 via mXylylene
SMILES: CC(C)C[C@@H]1NC(=O)[C@H](Cc2c[nH]c3ccccc23)NC(=O)[C@H](CC(=O)O)NC(=O)CNC(=O)[C@H](CCC(=O)O)NC(=O)[C@@H](NC(=O)[C@H](Cc2ccc(O)cc2)NC(=O)[C@@H](NC(=O)CCc2ccccc2)C(C)C)CSCc2cccc(c2)CSC[C@@H](C(N)=O)NC(=O)[C@H](CCC(N)=O)NC(=O)[C@H](Cc2c[nH]c3ccccc23)NC(=O)[C@H]([C@@H](C)O)NC1=O
B7: 3BP-3111 (peptide)
peptide: Isovaleryl-VYCEGDWLTWQC-NH2
modifications: linker 3-12 via mXylylene
SMILES: CC(C)CC(=O)N[C@H](C(=O)N[C@@H](Cc1ccc(O)cc1)C(=O)N[C@H]1CSCc2cccc(c2)CSC[C@@H](C(N)=O)NC(=O)[C@H](CCC(N)=O)NC(=O)[C@H](Cc2c[nH]c3ccccc23)NC(=O)[C@H]([C@@H](C)O)NC(=O)[C@H](CC(C)C)NC(=O)[C@H](Cc2c[nH]c3ccccc23)NC(=O)[C@H](CC(=O)O)NC(=O)CNC(=O)[C@H](CCC(=O)O)NC1=O)C(C)C
B8: 3BP-3271 (peptide)
peptide: {DOTA-Ttds(3)}-VYCE[Sar]DWLTWQC-NH2
modifications: linker 3-12 via mXylylene
notes: also called DOTA-Ttds-Val-Tyr-[Cys(3MeBn)-Glu-Nmg-Asp-Trp-Leu-Thr-Trp-Gln-Cys]-NH2
B9: 3BP-3289 (peptide)
peptide: Ac-VYCE[Sar]D[Trp(5-Cl)]LTWQC-NH2
modifications: linker 3-12 via mXylylene
SMILES: CC(=O)N[C@H](C(=O)N[C@@H](Cc1ccc(O)cc1)C(=O)N[C@H]1CSCc2cccc(c2)CSC[C@@H](C(N)=O)NC(=O)[C@H](CCC(N)=O)NC(=O)[C@H](Cc2c[nH]c3ccccc23)NC(=O)[C@H]([C@@H](C)O)NC(=O)[C@H](CC(C)C)NC(=O)[C@H](Cc2c[nH]c3ccc(Cl)cc23)NC(=O)[C@H](CC(=O)O)NC(=O)CN(C)C(=O)[C@H](CCC(=O)O)NC1=O)C(C)C
notes: also called Ac-Val-Tyr-[Cys(3MeBn)-Glu-Nmg-Asp-5Clw-Leu-Thr-Trp-Gln-Cys]-NH2
B10: 3BP-3290 (peptide)
peptide: Ac-VYCE[Sar]D[ξTrp(5-Me)]LTWQC-NH2
modifications: linker 3-12 via mXylylene; not fully specified; also: position 7 is DL-5-methyltryptophan, configuration not given here
notes: also called Ac-Val-Tyr-[Cys(3MeBn)-Glu-Nmg-Asp-Egc-Leu-Thr-Trp-Gln-Cys]-NH2
B11: 3BP-3311 (peptide)
peptide: Ac-VYCE[Sar]D[Bta]LTWQC-NH2
modifications: linker 3-12 via mXylylene
SMILES: CC(=O)N[C@H](C(=O)N[C@@H](Cc1ccc(O)cc1)C(=O)N[C@H]1CSCc2cccc(c2)CSC[C@@H](C(N)=O)NC(=O)[C@H](CCC(N)=O)NC(=O)[C@H](Cc2c[nH]c3ccccc23)NC(=O)[C@H]([C@@H](C)O)NC(=O)[C@H](CC(C)C)NC(=O)[C@H](Cc2csc3ccccc23)NC(=O)[C@H](CC(=O)O)NC(=O)CN(C)C(=O)[C@H](CCC(=O)O)NC1=O)C(C)C
notes: also called Ac-Val-Tyr-[Cys(3MeBn)-Glu-Nmg-Asp-Bta-Leu-Thr-Trp-Gln-Cys]-NH2
B12: 3BP-3314 (peptide)
peptide: Ac-VYCE[Sar]D[1Nal]LTWQC-NH2
modifications: linker 3-12 via mXylylene
SMILES: CC(=O)N[C@H](C(=O)N[C@@H](Cc1ccc(O)cc1)C(=O)N[C@H]1CSCc2cccc(c2)CSC[C@@H](C(N)=O)NC(=O)[C@H](CCC(N)=O)NC(=O)[C@H](Cc2c[nH]c3ccccc23)NC(=O)[C@H]([C@@H](C)O)NC(=O)[C@H](CC(C)C)NC(=O)[C@H](Cc2cccc3ccccc23)NC(=O)[C@H](CC(=O)O)NC(=O)CN(C)C(=O)[C@H](CCC(=O)O)NC1=O)C(C)C
notes: also called Ac-Val-Tyr-[Cys(3MeBn)-Glu-Nmg-Asp-1Ni-Leu-Thr-Trp-Gln-Cys]-NH2

The binders below were run against human carbonic anhydrase 9 (CAIX) (human, UniProt Q16790 38-459) (assay: FACS competition on HT-29 cells, competitor tracer 3BP-2776; category A = pIC50 >8.0).
Description: CAIX-expressing human HT-29 colorectal cancer cells (DSMZ, RRID: CVCL_0320) were cultured in McCoys's 5A modified medium (Biochrom, #F1015) including 10% fetal calf serum (FCS), 2 mM L-glutamine, 100 U/ml penicillin and 100 μg/mL streptomycin. Cells were detached with Accutase (Biolegend, #423201) and washed in FACS buffer (PBS including 1% FCS). Cells were diluted in FACS buffer to a final concentration of 500.000 cells per ml. 200 μL of the cell suspension were transferred to a u-shaped non-binding 96-well plate (Greiner) and cells were washed in ice-cold FACS buffer.
When biotinylated compounds were used an additional incubation step with 1 μg/mL APC-Streptavidin (Miltenyi; #130-106-791) in 50 μL FACS buffer for 30 minutes on ice was performed.
Cells were washed twice with ice-cold FACS buffer and analyzed in an Attune NxT flow cytometer (Thermo Fisher). Median fluorescence intensities (MFI) of the APC/Cy5-channel were calculated by Attune NxT software.

pIC50, > 8 pic50:
Ac-VFCE[dP]DWLTWE([Apr-DOTA])C-NH2 (linker 3-12 via mXylylene; reading uncertain) [3BP-3874]
B1
B2
{DOTA-APAc}-VYCE[dP]NWLTWSC-NH2 (linker 3-12 via mXylylene; reading uncertain) [3BP-4103]

Each binder was assayed against human carbonic anhydrase 9 (CAIX) (human, UniProt Q16790 38-459) (assay: FACS competition on HT-29 cells against tracer 3BP-2776; pIC50 category A = pIC50 >8.0).

pIC50, > 8 pic50:
B3
B4
{Bz′}-VYCEGDWLTWQC-NH2 (linker 3-12 via mXylylene) [3BP-3108]
B5
B6
B7
B8
B9
B10
B11
B12
